Test results: paper PMC3741624

Target: human plasma fibronectin, manually deposited single Fn fibers (human)

| ratio of ALP positive hMSCs on relaxed Fn fibers after 7 days with the function-blocking antibody against αvβ3 (clone 23C6), against no antibody [%] | ratio of ALP positive hMSCs on stretched Fn fibers after 7 days with the function-blocking antibody against α5β1 (clone JBS5), against no antibody [%] | Substance |
| --- | --- | --- |
| 30 |  | integrin αvβ3 (from UniProt P06756 31-1048; P05106 27-788) (receptor) |
|  | 31 | integrin α5β1 (from UniProt P08648 42-1049; P05556 21-798) (receptor) |
